Test results as given in US20240247080A1, “GLP1/GIP/NPY2 RECEPTOR TRIPLE AGONISTS” (Boehringer Ingelheim International GmbH, priority 2022, published 2024).
Starred links: 1 amine or outer side, 2 acyl side, 3 side chain; linkers in the order of their positions; H or OH if unused. Non-standard residues stand in square brackets, D forms with d. Groups on a side chain read outwards from the residue. No end group written: not given here. *: point of attachment. C18 diacid = O=C(O)CCCCCCCCCCCCCCCCC(=O)*; γGlu = O=C(O)[C@H](CCC(=O)[*:2])N[*:1]; εLys = N[C@@H](CCCCN[*:1])C(=O)[*:2]; AEEA = NCCOCCOCC(=O)O; Aib = CC(C)(N)C(=O)O; Ahx = NCCCCCC(=O)O

T1: human GIP receptor (human, UniProt P48546 22-466)
T1 sequence (looked up): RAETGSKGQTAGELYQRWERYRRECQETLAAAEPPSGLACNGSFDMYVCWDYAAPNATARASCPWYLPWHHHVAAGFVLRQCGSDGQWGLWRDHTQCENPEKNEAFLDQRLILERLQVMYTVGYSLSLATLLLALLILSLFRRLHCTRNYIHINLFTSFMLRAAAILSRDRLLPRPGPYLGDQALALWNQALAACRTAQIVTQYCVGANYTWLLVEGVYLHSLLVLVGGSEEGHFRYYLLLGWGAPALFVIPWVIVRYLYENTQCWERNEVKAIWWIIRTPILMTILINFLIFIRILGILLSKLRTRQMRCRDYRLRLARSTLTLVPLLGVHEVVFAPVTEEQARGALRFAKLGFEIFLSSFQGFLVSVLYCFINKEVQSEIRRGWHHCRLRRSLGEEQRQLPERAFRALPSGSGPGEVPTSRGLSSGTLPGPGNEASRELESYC

T2: human neuropeptide Y2 receptor (human, UniProt P49146 1-381)
T2 sequence (looked up): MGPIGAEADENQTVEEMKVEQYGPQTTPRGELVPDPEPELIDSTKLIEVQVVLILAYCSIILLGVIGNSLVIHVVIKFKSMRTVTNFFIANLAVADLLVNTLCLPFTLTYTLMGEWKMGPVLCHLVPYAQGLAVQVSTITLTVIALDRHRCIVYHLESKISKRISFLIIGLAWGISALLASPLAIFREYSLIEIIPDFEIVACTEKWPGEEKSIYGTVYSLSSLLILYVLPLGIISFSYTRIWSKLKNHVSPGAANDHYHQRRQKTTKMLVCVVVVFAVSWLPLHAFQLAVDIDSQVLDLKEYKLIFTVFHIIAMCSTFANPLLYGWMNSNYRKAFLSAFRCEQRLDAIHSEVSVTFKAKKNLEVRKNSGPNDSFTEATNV

B1: Compound 131 (peptide)
peptide: YXEGTFTSDYSIXLERQAQXAFVEWLIKGGPSSGASLRHYYNWLTRQRY
modifications: Aib at 2, 13, 20; K28 side chain: C20DA-gGlu-gGlu-gGlu-gGlu-gGlu-gGlu-eLys; C-terminal NH2
B2: Compound 133 (peptide)
peptide: YXEGTFTSDYSIXLEKQAQXAFVEWLIKGGPSSGASLRHYXNWLTRQRY
modifications: Aib at 2, 13, 20; Tle at 41; K28 side chain: C20DA-gGlu-gGlu-gGlu-gGlu-gGlu-gGlu-eLys; C-terminal NH2
B3: Compound 141 (peptide)
peptide: YXEGTFTSDYSIXLEKQAQXEFVQWLIKGGPSEGASLRHYYNWLTRQRY
modifications: Aib at 2, 13, 20; K28 side chain: C18DA-gGlu-gGlu-gGlu-gGlu-gGlu; C-terminal NH2
B4: Compound 142 (peptide)
peptide: YXEGTFTSDYSIXLEKQAQXAFVQWLIKGGPSEPASLRHYYNWLTRQRY
modifications: Aib at 2, 13, 20; K28 side chain: C18DA-gGlu-gGlu-gGlu-gGlu-gGlu-OEG-OEG; C-terminal NH2
B5: Compound 135 (peptide)
peptide: YXEGTFTSDYSIXLEKQAQXAFVEYLIKGGPSSGASLRHYYNWLTRQRY
modifications: Aib at 2, 13, 20; K28 side chain: C20DA-gGlu-gGlu-gGlu-gGlu-gGlu-gGlu-eLys; C-terminal NH2
B6: Compound 136 (peptide)
peptide: YXEGTFTSDYSIXLEKAAQXAFVEWLIKGGPSSGASLRHYYNWLTRQRY
modifications: Aib at 2, 13, 20; K28 side chain: C20DA-gGlu-gGlu-gGlu-gGlu-gGlu-gGlu-eLys; C-terminal NH2
B7: Compound 149 (peptide)
peptide: YXEGTFTSDYSIXLEKQAQXAFVQWLIKGGPEEGASLRHYYNWLTRQRY
modifications: Aib at 2, 13, 20; K28 side chain: C18DA-gGlu-gGlu-gGlu-gGlu-gGlu-gGlu-eLys; C-terminal NH2
B8: Compound 134 (peptide)
peptide: YXEGTFTSDYSIXLEKQAQXAFVEWLIKGGPSEGQSIRHYYNWLTRQRY
modifications: Aib at 2, 13, 20; K28 side chain: C20DA-gGlu-gGlu-gGlu-gGlu-gGlu-gGlu-eLys; C-terminal NH2
B9: Compound 137 (peptide)
peptide: YXEGTFTSDYSIXLEKQAQXAFVEWLIKGGPSSGASLRHYYNWXTRQRY
modifications: Aib at 2, 13, 20; Tle at 44; K28 side chain: C20DA-gGlu-gGlu-gGlu-gGlu-gGlu-gGlu-eLys; C-terminal NH2
B10: Compound 132 (peptide)
peptide: YXEGTFTSDYSIXLEKQAQXAFVEWLIKGGPSSGASIRHYYNWLTRQRY
modifications: Aib at 2, 13, 20; K28 side chain: C20DA-gGlu-gGlu-gGlu-gGlu-gGlu-gGlu-eLys; C-terminal NH2
B11: Compound 140 (peptide)
peptide: YXEGTFTSDYSIXLEKQAQXAFVEWLIKGGPSSPASLRHYYNWLTRQRY
modifications: Aib at 2, 13, 20; K28 side chain: C18DA-gGlu-gGlu-gGlu-gGlu-gGlu-OEG-OEG; C-terminal NH2

What was measured:
Assay in all cases: cell-based or functional assay
[1] = target: human GLP-1 receptor (human, UniProt P43220 24-463)
[2] = target: T1, human GIP receptor
[3] = target: T2, human neuropeptide Y2 receptor

Binder | EC50 CreLuc hGLP1R 0.5% hP [1] [nM] | EC50 CreLuc hGLP1R 100% hP [1] [nM] | EC50 CreLuc hGIPR 0.5% hP [2] [nM] | EC50 CreLuc hGIPR 100% hP [2] [nM] | EC50 CreLuc hNPY2R 0.5% hP [3] [nM] | EC50 CreLuc hNPY2R 100% hP [3] [nM]
B1 | 0.11 | 2.84 | 0.35 | 2.94 | 18.2 | 71.5
B2 | 0.16 | 3.01 | 0.48 | 2.28 | 14.1 | 41.4
B3 | 0.25 | 7.93 | 0.4 | 1.32 | 11.8 | 35.2
B4 | 0.12 | 3.34 | 0.28 | 1.15 | 12.9 | 28.2
B5 | 0.24 | 2.3 | 0.11 | 1.07 | 8.4 | 21.5
B6 | 0.32 | 4.19 | 0.31 | 2.03 | 15.1 | 64.7
B7 | 0.15 | 4.76 | 0.58 | 0.79 | 18.6 | 40.3
B8 | 0.1 | 3.94 | 0.09 | 0.83 | 10.1 | 40
B9 | 0.12 | 2.22 | 0.28 | 1.5 | 60.2 | 93
B10 | 0.14 | 3.76 | 0.22 | 2.07 | 11.3 | 45.4
B11 | 0.12 | 3.11 | 0.22 | 1.2 | 12.4 | 45.9
Y[Aib]EGTFTSDYSI[Aib]LEKQAQ[Aib]AFVQWLIK([εLys-γGlu-γGlu-γGlu-γGlu-γGlu-C18 diacid])GGPSEPASLRHYYNWLTRQRY-NH2 [Compound 148] | 0.08 | 1.46 | 0.07 | 0.47 | 11 | 21.1
Y[Aib]EGTFTSDYSI[Aib]LEKQAQ[Aib]AFVQWLIK([Ahx-γGlu-γGlu-γGlu-γGlu-γGlu-γGlu-C18 diacid])GGPSSGASLRHYYNWLTRQRY-NH2 [Compound 139] | 0.07 | 1.62 | 0.22 | 1.04 | 18.3 | 43.2
Y[Aib]EGTFTSDYSI[Aib]LEKQAQ[Aib]AFVQWLIKGGPSSGASLRHYYNWLTRQRY-NH2 (not fully specified (residue 28)) [Compound 147] | 0.08 | 1.54 | 0.19 | 1.6 | 23.3 | 65.6
Y[Aib]EGTFTSDYSI[Aib]LEKQAQ[Aib]AFVQWLIK([AEEA-AEEA-γGlu-γGlu-γGlu-γGlu-C18 diacid])GGPEEGASLRHYYNWLTRQRY-NH2 [Compound 146] | 0.14 | 4.27 | 0.77 | 0.73 | 14 | 38.8
Y[Aib]EGTFTSDYSI[Aib]LEKQAQ[Aib]AFVQWLIK([εLys-γGlu-γGlu-γGlu-γGlu-γGlu-C18 diacid])GGPEEGASLRHYYNWLTRQRY-NH2 [Compound 143] | 0.13 | 4.24 | 0.22 | 0.67 | 13.1 | 42.2
Y[Aib]EGTFTSDYSI[Aib]LEKQAE[Aib]AFVEWLIK([AEEA-AEEA-γGlu-γGlu-γGlu-γGlu-C18 diacid])GGPSSGASLRHYYNWLTRQRY-NH2 [Compound 150] | 0.31 | 8.35 | 0.27 | 1.65 | 16.7 | 62.7
Y[Aib]EGTFTSDYSI[Aib]LEKQAQ[Aib]EFVQWLIK([γGlu-γGlu-γGlu-γGlu-γGlu-γGlu-C18 diacid])GGPSEGASLRHYYNWLTRQRY-NH2 [Compound 151] | 0.26 | 4.39 | 0.91 | 1.28 | 18.9 | 42.3
Y[Aib]EGTFTSDYSI[Aib]LEKQAQ[Aib]EFVEWLIK([AEEA-AEEA-γGlu-γGlu-γGlu-γGlu-C18 diacid])GGPSSGASLRHYYNWLTRQRY-NH2 [Compound 145] | 0.31 | 7.29 | 0.28 | 1.23 | 11.9 | 31.8
Y[Aib]EGTFTSDYSI[Aib]LEKQAQ[Aib]AFVQWLIK([AEEA-AEEA-γGlu-γGlu-γGlu-C18 diacid])GGPEEGASLRHYYNWLTRQRY-NH2 [Compound 144] | 0.16 | 5.59 | 1.15 | 0.79 | 15.8 | 48.7
Y[Aib]EGTFTSDYSI[Aib]LEKQAE[Aib]AFVQWLIK([εLys-γGlu-γGlu-γGlu-γGlu-γGlu-C18 diacid])GGPSEGASLRHYYNWLTRQRY-NH2 [Compound 138] | 0.19 | 5.09 | 0.13 | 0.81 | 18.3 | 28.4
